Experimental data as given in article doi:10.1101/2025.11.17.688911, “Structure and mechanism of microtubule stabilization and motor regulation by MAP9” (bioRxiv, 2025).

Legend:
[1] = biological target: T1, surface-immobilized biotinylated microtubules (pig, UniProt Q2XVP4 1-451; Q767L7 1-444, biotin (site not stated) | biotin (site not stated)); assay: cell-based or functional assay
[2] = biological target: T1, surface-immobilized biotinylated …; assay: TIRF microscopy, fluorescence intensity of GFP-tagged MAP on microtubules; biotinylated MTs held on a streptavidin-coated coverslip; MAP titrated in BRB80 (80 mM PIPES pH 6.8, 1 mM EGTA, 2 mM MgCl2; about 100 mM salt) with 1 mg/mL casein, 0.5% pluronic acid, no motors or ATP; intensity fit to the Langmuir isotherm; settings: both partners purified

B1: full-length (FL) human MAP9 (GFP::Human MAP9::strepII) (natural protein, UniProt Q49MG5 1-647, looked up)
chain: MSDEVFSTTLAYTKSPKVTKRTTFQDELIRAITARSARQRSSEYSDDFDSDEIVSLGDFSDTSADENSVNKKMNDFHISDDEEKNPSKLLFLKTNKSNGNITKDEPVCAIKNEEEMAPDGCEDIVVKSFSESQNKDEEFEKDKIKMKPKPRILSIKSTSSAENNSLDTDDHFKPSPRPRSMLKKKSHMEEKDGLEDKETALSEELELHSAPSSLPTPNGIQLEAEKKAFSENLDPEDSCLTSLASSSLKQILGDSFSPGSEGNASGKDPNEEITENHNSLKSDENKENSFSADHVTTAVEKSKESQVTADDLEEEKAKAELIMDDDRTVDPLLSKSQSILISTSATASSKKTIEDRNIKNKKSTNNRASSASARLMTSEFLKKSSSKRRTPSTTTSSHYLGTLKVLDQKPSQKQSIEPDRADNIRAAVYQEWLEKKNVYLHEMHRIKRIESENLRIQNEQKKAAKREEALASFEAWKAMKEKEAKKIAAKKRLEEKNKKKTEEENAARKGEALQAFEKWKEKKMEYLKEKNRKEREYERAKKQKEEETVAEKKKDNLTAVEKWNEKKEAFFKQKEKEKINEKRKEELKRAEKKDKDKQAINEYEKWLENKEKQERIERKQKKRHSFLESEALPPWSPPSRTVFAKVF
notes: human MAP9, full length; also called FL MAP9; ASAP; source: E. coli Rosetta (DE3), purified (Strep-Tactin XT; for structural studies also heparin HP and Superdex 200); not shown: GFP, N-terminal, kept
- depolymerization rate of MTs after removing free tubulin and GTP, with MAP9 kept in the chamber [1]: 6 fold
- Kd [2]: 61 nM
